Data on one protein can be found in publication PMC8154130 (ACS Omega, 2021).

The data set deals with the molecule itself. The experiment in a line: native gel or EMSA. (A gel shift assay detects complexes by their altered migration in electrophoresis.)

B1: C-terminal truncated DDX3X (domain or fragment, human, UniProt O00571 1-582, looked up)
chain: MSHVAVENALGLDQQFAGLDLNSSDNQSGGSTASKGRYIPPHLRNREATKGFYDKDSSGWSSSKDKDAYSSFGSRSDSRGKSSFFSDRGSGSRGRFDDRGRSDYDGIGSRGDRSGFGKFERGGNSRWCDKSDEDDWSKPLPPSERLEQELFSGGNTGINFEKYDDIPVEATGNNCPPHIESFSDVEMGEIIMGNIELTRYTRPTPVQKHAIPIIKEKRDLMACAQTGSGKTAAFLLPILSQIYSDGPGEALRAMKENGRYGRRKQYPISLVLAPTRELAVQIYEEARKFSYRSRVRPCVVYGGADIGQQIRDLERGCHLLVATPGRLVDMMERGKIGLDFCKYLVLDEADRMLDMGFEPQIRRIVEQDTMPPKGVRHTMMFSATFPKEIQMLARDFLDEYIFLAVGRVGSTSENITQKVVWVEESDKRSFLLDLLNATGKDSLTLVFVETKKGADSLEDFLYHEGYACTSIHGDRSQRDREEALHQFRSGKSPILVATAVAARGLDISNVKHVINFDLPSDIEEYVHRIGRTGRVGNLGLATSFFNERNINITKDLLDLLVEAKQEVPSWLENMAYEHHYKG
Regarding B1, the binding result is on record as “binds”.
